T1: human CD22-ECD-His protein (human, UniProt P20273 20-687)
T1 construct: Made in house in HEK293E; also called hCD22-ECD-His; recombinant human CD22-ECD His protein; not shown: His tag
T1 sequence: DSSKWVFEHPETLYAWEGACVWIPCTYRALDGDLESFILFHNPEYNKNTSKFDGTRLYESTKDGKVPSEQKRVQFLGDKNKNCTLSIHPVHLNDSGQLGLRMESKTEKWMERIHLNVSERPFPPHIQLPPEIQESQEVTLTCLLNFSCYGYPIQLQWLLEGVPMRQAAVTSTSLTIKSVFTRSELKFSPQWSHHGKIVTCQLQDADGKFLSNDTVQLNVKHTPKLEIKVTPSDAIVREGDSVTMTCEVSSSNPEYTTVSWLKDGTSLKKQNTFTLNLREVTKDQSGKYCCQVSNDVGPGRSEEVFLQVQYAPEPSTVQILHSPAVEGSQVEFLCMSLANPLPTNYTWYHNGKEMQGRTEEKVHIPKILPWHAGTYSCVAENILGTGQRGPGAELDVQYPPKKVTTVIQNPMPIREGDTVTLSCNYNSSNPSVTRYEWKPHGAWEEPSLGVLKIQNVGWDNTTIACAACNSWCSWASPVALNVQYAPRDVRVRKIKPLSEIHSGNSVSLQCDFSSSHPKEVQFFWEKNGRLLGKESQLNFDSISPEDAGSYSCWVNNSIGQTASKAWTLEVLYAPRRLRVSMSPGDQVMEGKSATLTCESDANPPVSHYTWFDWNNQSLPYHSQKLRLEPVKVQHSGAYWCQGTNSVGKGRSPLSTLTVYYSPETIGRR

T2: human CD22 domain1-4-His (human, UniProt P20273 20-425)
T2 construct: also called hCD22 domain1-4-His; not shown: His tag
T2 sequence: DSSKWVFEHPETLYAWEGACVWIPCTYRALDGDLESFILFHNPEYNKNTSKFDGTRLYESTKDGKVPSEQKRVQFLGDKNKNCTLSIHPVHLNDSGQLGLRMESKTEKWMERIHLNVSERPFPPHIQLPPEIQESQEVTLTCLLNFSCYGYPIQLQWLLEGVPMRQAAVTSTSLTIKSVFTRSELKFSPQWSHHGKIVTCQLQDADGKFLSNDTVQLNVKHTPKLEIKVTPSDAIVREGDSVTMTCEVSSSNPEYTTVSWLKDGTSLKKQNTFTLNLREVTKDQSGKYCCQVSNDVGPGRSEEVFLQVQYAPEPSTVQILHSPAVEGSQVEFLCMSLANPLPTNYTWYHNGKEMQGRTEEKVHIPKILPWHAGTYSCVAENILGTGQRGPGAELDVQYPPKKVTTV

T3: human CD22 domain5-7-His (human, UniProt P20273 414-687)
T3 construct: also called hCD22 domain5-7-His; not shown: His tag
T3 sequence: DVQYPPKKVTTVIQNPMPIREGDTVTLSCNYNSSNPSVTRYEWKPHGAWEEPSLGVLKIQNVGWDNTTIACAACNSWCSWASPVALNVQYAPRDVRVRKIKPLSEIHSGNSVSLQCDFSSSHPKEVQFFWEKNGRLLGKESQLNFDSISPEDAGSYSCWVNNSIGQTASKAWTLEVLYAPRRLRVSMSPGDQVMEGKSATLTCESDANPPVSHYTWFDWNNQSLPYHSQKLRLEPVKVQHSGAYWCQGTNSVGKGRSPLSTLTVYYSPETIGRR

T4: murine CD22 protein (ACROBiosystems, SI2-M52Ha) (murine, UniProt P35329 22-708)
T4 construct: extracellular domain; also called murine CD22-ECD; murine CD22-ECD-His
T4 sequence (looked up): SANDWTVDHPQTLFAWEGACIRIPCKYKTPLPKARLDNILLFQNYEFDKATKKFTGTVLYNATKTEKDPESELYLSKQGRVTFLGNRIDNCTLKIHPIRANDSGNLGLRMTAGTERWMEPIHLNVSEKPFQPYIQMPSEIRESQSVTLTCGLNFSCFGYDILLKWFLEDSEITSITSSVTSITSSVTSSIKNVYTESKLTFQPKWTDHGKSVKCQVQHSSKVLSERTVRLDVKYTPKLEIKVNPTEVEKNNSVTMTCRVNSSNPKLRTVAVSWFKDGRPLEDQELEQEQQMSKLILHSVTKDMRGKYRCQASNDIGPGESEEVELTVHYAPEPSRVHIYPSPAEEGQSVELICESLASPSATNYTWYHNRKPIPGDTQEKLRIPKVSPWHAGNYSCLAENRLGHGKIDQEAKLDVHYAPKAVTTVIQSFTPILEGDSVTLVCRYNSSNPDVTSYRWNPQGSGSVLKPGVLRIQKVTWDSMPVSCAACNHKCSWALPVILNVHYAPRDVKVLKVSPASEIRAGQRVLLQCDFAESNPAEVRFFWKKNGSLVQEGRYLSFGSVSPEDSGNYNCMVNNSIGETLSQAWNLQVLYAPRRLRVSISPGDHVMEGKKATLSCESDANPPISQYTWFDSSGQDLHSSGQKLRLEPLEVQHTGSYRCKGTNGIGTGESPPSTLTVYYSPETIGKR

T5: rhesus monkey CD22-ECD-His protein (rhesus monkey, UniProt H9G1X2 18-686)
T5 construct: extracellular domain; also called monkey CD22 protein
T5 sequence: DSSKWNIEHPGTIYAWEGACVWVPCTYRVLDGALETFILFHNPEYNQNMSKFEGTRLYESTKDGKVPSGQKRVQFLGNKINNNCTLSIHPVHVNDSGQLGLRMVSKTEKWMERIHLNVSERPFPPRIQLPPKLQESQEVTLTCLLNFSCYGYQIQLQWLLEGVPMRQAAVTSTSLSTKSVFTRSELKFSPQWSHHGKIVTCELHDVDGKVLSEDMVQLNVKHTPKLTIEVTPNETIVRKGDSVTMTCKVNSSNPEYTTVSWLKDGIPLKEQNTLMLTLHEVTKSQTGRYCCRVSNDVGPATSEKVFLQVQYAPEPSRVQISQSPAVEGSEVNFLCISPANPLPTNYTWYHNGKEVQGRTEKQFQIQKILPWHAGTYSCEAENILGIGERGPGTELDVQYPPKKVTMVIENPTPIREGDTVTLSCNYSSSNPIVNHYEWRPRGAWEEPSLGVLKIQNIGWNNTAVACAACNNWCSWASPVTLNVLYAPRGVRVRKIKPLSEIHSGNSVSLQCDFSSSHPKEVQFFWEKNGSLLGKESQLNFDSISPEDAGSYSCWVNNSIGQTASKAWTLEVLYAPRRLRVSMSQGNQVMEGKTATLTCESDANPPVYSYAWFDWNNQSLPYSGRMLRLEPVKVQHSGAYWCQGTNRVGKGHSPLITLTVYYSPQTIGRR

T6: human CD22 domain5-7-His (human, UniProt P20273 414-687)
T6 construct: also called hCD22 domain5-7-His; not shown: His tag
T6 sequence: T3 sequence

T7: human CD22-ECD-His protein (human, UniProt P20273 20-687)
T7 construct: Recombinant, from HEK293E cells; also called hCD22-ECD-His; human CD22-His protein; not shown: His tag
T7 sequence: T1 sequence

B1: F1.267.9 (antibody, human IgG1, kappa, V domains shown)
VH: EVQLQQSGPVLVKPGASVKMSCKASGYTFTDFYMNWAKQSHGKSLEWVGVINPYNGGINYNQKFKGKATLTVDKSSSTAYMEFNSLTSEDSAVYYCARRMEYHAMDYWGQGTSVTVSS
VL: DIVLTQSPASLAVSLGQRATISCRASESVDNYGFDFIHWYQQKPGQPPKLLIYRASNLESGIPARFSGSGSRPDFTLTINPVETDDVATYYCQQSIKDPWTFGGGTKLEIKR
notes: Human-murine chimeric IgG1, kappa
B2: F1.7.6 (antibody, human IgG1, kappa, V domains shown)
VH: EIQLQQSGPELVKPGTSVKVSCKASGYDFTRYNMYWVKQSHGKSLEWIGYIDPYNGDTRYNQKFKGKATLTVDKSSSTAYMHLNSLTSEDSAVYYCEAIYYDMEGYALDYWGQGTSVTVSS
VL: DIVMSQSPSSLAVSVGEKVTMSCKSSQSLLYSNNQKNYLAWYQQKPGQSPKKLIYWASTRESGVPDRLTGSGSGTDFTLTISSVTAEDLAVYYCQQFYSYPWTFGGGTKLEIKR
notes: as for B1
B3: HA22-hIgG1 (antibody, V domains shown)
VH: EVQLVESGGGLVKPGGSLKLSCAASGFAFSIYDMSWVRQTPEKCLEWVAYISSGGGTTYYPDTVKGRFTISRDNAKNTLYLQMSSLKSEDTAMYYCARHSGYGTHWGVLFAYWGQGTLVTVSA
VL: DIQMTQTTSSLSASLGDRVTISCRASQDISNYLNWYQQKPDGTVKLLIYYTSILHSGVPSRFSGSGSGTDYSLTISNLEQEDFATYFCQQGNTLPWTFGCGTKLEIKR

How the values were obtained:
[1] = target: T1, human CD22-ECD-His protein; assay: ELISA, Ab 0.00001 nM
Experimental: (§1) In order to detect the binding activity of CD22 human-murine chimeric antibodies to CD22 protein, the purified human CD22-ECD-His protein obtained in Example 2 was diluted with PBS to a final concentration of 2 μg/mL, and then added to 96-well ELISA plate at 100 μl/well. The plate was sealed with plastic film and incubated overnight at 4° C., the plate was washed 2 times with PBS the next day, and then a blocking solution [PBS+2% (w/w) BSA] was added for blocking at room temperature for 2 hours. […] After incubation at 37° C. for 2 hours, the plate was washed 3 times with PBS. HRP (horseradish peroxidase)-labeled secondary antibody (purchased from Sigma, catalog number: A0170) was added, and incubated at 37° C. for 2 hours, and the plate was washed 5 times with PBS. TMB substrate was added at 50 μl/well, and incubated at room temperature for 30 minutes, then a stop solution (1.0 N HCl) was added at 50 μl/well.

[2] = target: T1, human CD22-ECD-His protein; assay: ELISA, Ab 0.001 nM
Experimental: as §1

[3] = target: T1, human CD22-ECD-His protein; assay: ELISA, human CD22-ECD-His coated
Experimental: as §1

human CD22 domain1-4-His = target: T2, human CD22 domain1-4-His; assay: ELISA, human CD22 domain1-4-His coated
[4] = target: T1, human CD22-ECD-His protein; assay: ELISA, Ab 100.00 nM
Experimental: as §1

[5] = target: T1, human CD22-ECD-His protein; assay: ELISA, Ab 10.00 nM
Experimental: as §1

human CD22 domain5-7-His [6] = target: T3, human CD22 domain5-7-His; assay: ELISA, human CD22 domain5-7-His coated
[7] = target: T1, human CD22-ECD-His protein; assay: ELISA, Ab 0.0001 nM
Experimental: as §1

[8] = target: T4, murine CD22 protein (ACROBiosystems, …); assay: ELISA, murine CD22-ECD-His coated
Experimental: as §1
In order to detect the species cross-binding activity of the chimeric antibodies, an ELISA plate was coated with commercial murine CD22 protein (ACROBiosystems, catalog number: SI2-M52Ha) and monkey CD22 protein (ACROBiosystems, catalog number: SI2-R52Ha), respectively, and the ELISA detection was performed according to the method in Example 5.1.

[9] = target: T1, human CD22-ECD-His protein; assay: ELISA, Ab 0.10 nM
Experimental: as §1

[10] = target: T1, human CD22-ECD-His protein; assay: ELISA, Ab 0.01 nM
Experimental: as §1

[11] = target: T5, rhesus monkey CD22-ECD-His protein; assay: SPR (Biacore), antibody captured on Protein A chip, rhesus CD22 in solution
human CD22 domain5-7-His [12] = target: T6, human CD22 domain5-7-His; assay: ELISA, plate coated with human CD22 domain5-7-His
[13] = target: T7, human CD22-ECD-His protein; assay: SPR (Biacore), antibody captured on Protein A chip, CD22-ECD-His in solution
Experimental: Sample buffer and running buffer were HBS-EP+(10 mM HEPES, 150 mM NaCl, 3 mM EDTA, 0.05% surfactant P20) (GE Healthcare; BR-1006-69). The flow-through cell was set to 25° C. The sample block was set to 16° C. Both were pretreated with the running buffer. In each cycle, the antibody to be tested was first captured with a Protein A chip, then a single concentration of CD22 antigen protein was injected. The binding and dissociation process of the antibody and the antigen protein was recorded, and finally Glycine pH 1.5 (GE Healthcare; BR-1003-54) was used to complete chip regeneration. Binding was measured by injecting different concentrations of recombinant human CD22-ECD His protein in solution for 240 s with a flow rate of 30 μL/min. The concentration started from 200 nM (see the detailed results for the actual concentration in the test) and was diluted at 1:1, making a total of 5 concentrations. The dissociation phase was monitored for up to 600 s and was triggered by switching from sample solution to running buffer. The surface was regenerated by washing with a 10 mM of glycine solution (pH 1.5) for 30 s at a flow rate of 30 μL/min. Bulk refractive index difference was corrected by subtracting the response obtained from the goat anti-human Fc surface. Blank injection was also subtracted (=double reference). For calculation of apparent KD and other kinetic parameters, Langmuir 1:1 model was used.

Binder | OD450 [1] [OD450] | OD450 [2] [OD450] | EC50 (read off the curve) [3] [nM] | EC50 (read off the curve) (human CD22 domain1-4-His) [nM] | OD450 [4] [OD450] | OD450 [5] [OD450] | binding result (human CD22 domain5-7-His [6]) | OD450 [7] [OD450] | binding result [8] | OD450 [9] [OD450] | OD450 [10] [OD450] | Kd [11] [nM] | koff [11] [s⁻¹] | kon [11] [M⁻¹ s⁻¹] | binding result (human CD22 domain5-7-His [12]) | Kd [13] [nM] | koff [13] [s⁻¹] | kon [13] [M⁻¹ s⁻¹]
B1 | 0.06 | 0.34 | ~0.08 | ~0.2 | 2.56 | 2.55 | no binding (tested: 100 nM) | 0.1 | no binding (tested: 100 nM) | 2.39 | 1.47 | – | – | – | – | – | – | –
B2 | 0.15 | 1.19 | ~0.02 | ~0.03 | 2.88 | 2.46 | no binding (tested: 100 nM) | 0.34 | no binding (tested: 100 nM) | 2.51 | 2.2 | – | – | – | – | – | – | –
B3 | – | – | – | – | – | – | – | – | – | – | – | 3.41 | 0.000234 | 68600 | no binding | 1.33 | 8.96e-05 | 67400
